# Biological target: T1, H2-K^b (Mus musculus, UniProt P01901)
# T1 sequence (P01901 22-369): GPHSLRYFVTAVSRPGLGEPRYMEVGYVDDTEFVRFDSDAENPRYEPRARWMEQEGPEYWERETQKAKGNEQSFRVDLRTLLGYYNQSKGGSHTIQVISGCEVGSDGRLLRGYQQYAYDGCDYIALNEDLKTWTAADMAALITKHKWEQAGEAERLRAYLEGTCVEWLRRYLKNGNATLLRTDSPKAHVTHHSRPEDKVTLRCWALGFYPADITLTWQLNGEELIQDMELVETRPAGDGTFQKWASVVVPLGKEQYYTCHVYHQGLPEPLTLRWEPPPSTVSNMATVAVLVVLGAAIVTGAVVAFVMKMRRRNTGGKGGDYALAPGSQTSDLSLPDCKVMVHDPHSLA
# T1 sequence (P01887 21-119 partner): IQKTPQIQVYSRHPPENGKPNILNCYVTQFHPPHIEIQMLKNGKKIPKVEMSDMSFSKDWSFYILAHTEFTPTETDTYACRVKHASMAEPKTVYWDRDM
# Test: Peptide binding assay (assembly/stabilization assay in RMA-S cell lysate)
# Conditions: in vitro binding assay, compared with positive control peptide SEV
# Description: Binding of each peptide to H2-K^b was performed using the assembly assay as described (29). This assay is based on the observation that, in a detergent lysate of RMA-S cells, K^b molecules are unstable and dissociate after an overnight incubation at 4° C. unless a stabilising (K^b-binding) peptide is added at the time of lysis. Only stabilised K^b molecules can therefore be recovered by immunoprecipitation with mAb Y3 after overnight incubation. The amount of recovered K^b is directly proportional to the amount of peptide bound, and the concentration of peptide required to effect 50% maximal recovery represents an approximate binding affinity (29). Recovery of H2-K^b heavy chains (HC) was quantitated after immunoprecipitation and SDS PAGE using AIDA (Fuji).
row,Sequence,binding to H2-K^b
1,LNIYYRRL [peptide 2],comparable to the positive control
2,SNWYFNHL [peptide 1],comparable to the positive control

# Source: patent US7816334B2, “Materials and methods relating to immune responses to fusion proteins” (Cancer Research Technology Limited, priority 2000, dated 2010)
